Positions count from the first letter of the chain named. No end group written: not given here. *: point of attachment. Biotin = O=C1N[C@H]2[C@H](CS[C@H]2CCCCC(=O)*)N1; Ahx = NCCCCCC(=O)O
Legend:
[1] = tested on: isolated rat RGS12 PDZ domain (recombinant GST-fusion protein); design: method as in PMID 9651375, PMID 17380122, PMID 11771424; conditions: C-terminal tail peptide; ref [19],[42],[65]; cited from earlier work
[2] = tested on: wildtype RGS12 PDZ domain; conditions: prior SPR assays; ref [19],[42],[65]; cited from earlier work
Source text: Table 1 Heat map of GLIDE SP-peptide and GLIDE XP scores for predicted docking of four pentameric ligands into the ligand-binding “receptor grid” specified for each of the 20 low-energy structural models (“poses”) of the human RGS12 PDZ domain recorded within PDB id 2KV8. […] Each of the three C-tail ligands was synthesized as an N-terminally biotin-tagged polypeptide and used to create gold nanoparticle biosensors for measuring the binding of these recombinant GST-RGS12 PDZ domain fus ...

[3] = target: T1, R59Q-variant RGS12 PDZ domain GST-fusion protein (Homo sapiens, UniProt O14924, R59Q); experiment: SPR single-cycle kinetics (Alto), R59Q-variant PDZ domain; format: binding; conditions: R59Q vs wildtype; peptide biosensors; N = 2-4
T1 construct: human RGS12 PDZ domain (aa 18–101 of UniProt O14924); purchased GenScript; host or cells: E. coli
T1 sequence (O14924 18-101 R59Q): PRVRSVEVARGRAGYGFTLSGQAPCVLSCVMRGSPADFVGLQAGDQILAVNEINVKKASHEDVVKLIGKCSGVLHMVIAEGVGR
Protocol: Wildtype and R59Q-variant versions of the human RGS12 PDZ domain (aa 18–101 of UniProt O14924) were each cloned in frame with an N-terminal glutathione-S-transferase (GST) expression tag, expressed by E. coli fermentation, and purified by GST-affinity column and size-exclusion column chromatographies by GenScript. These recombinant GST-fusion proteins were stored at −80 °C in a storage buffer (150 mM NaCl, 10 mM Tris-HCl pH 7.6, 1 mM EDTA, 5 mM DTT, and 10% glycerol) prior to thawing and supplementation with 0.1% (final) Tween 20 for use in the SPR experiments.
Biotinylated peptides were separately immobilized onto streptavidin-coated gold nanosensor particles (Nicoya) in lane pairs. The reference sensor of the lane held either immobilized mNotch1 or rβ2AR peptide as an established negative control surface, and the test sensor held one of the candidate PDZ domain-interacting peptides. All on-board dilutions and experimental passages of analytes over immobilized peptides were performed with a running buffer consisting of phosphate-buffered saline (137 mM NaCl, 2.7 mM KCl, 4.3 mM disodium phosphate, 1.4 mM monopotassium phosphate; and pH 7.3, from Teknova) supplemented with 0.1% Tween 20 (Nicoya), […] (w/v) bovine serum albumin (BSA; Nicoya), and 3% glycerol (the latter to reduce bulk-shift readings when transitioning from running buffer to protein analyte injections). […] Each sensor was regenerated between each single-stack passage by the injection of a surface regeneration buffer (10 mM NaOH). Non-specific binding to the paired, negative control peptide-bound streptavidin surface was subtracted from each single-stack curve and then binding parameters of the on-rate (ka), off-rate (kd), and dissociation constant (KD) were calculated using the 1:1 Langmuir kinetics model with mass transport limitation (Alto software version 2.3.1; Nicoya). Observed maximal response units (Rmax) and calculated KD values for each single-stack injection were plotted using GraphPad Prism 10.

[4] = tested on: recombinant RGS12 PDZ domain protein; conditions: biotinylated peptide immobilized on streptavidin chip to 350 RU; 10 mM HEPES pH 7.4, 250 mM NaCl, 0.05% Nonidet P-40, 50 μM EDTA; analyte 300 μM (10 nM to 500 μM); mNotch1 surface subtracted
Protocol: Optical detection of real-time protein–peptide interactions by surface plasmon resonance was performed using a Biacore 3000 (Cytiva; Marlborough, MA, USA), as per previously described methods [65, 105, 106]. Briefly, biotinylated peptides were separately immobilized on streptavidin-coated SPR chips (Cytiva) to 350 resonance units (RUs). All experiments were performed with the sensor surface, fluidics, and pump equilibrated with Biacore running buffer (10 mM HEPES pH 7.4, 250 mM NaCl, 0.05% (v/v) Nonidet P-40, and 50 μM EDTA). Increasing concentrations (10 nM to 500 μM) of recombinant RGS12 PDZ domain protein (expressed from E. coli culture and purified as previously described in ref. [65]) were separately injected at a flow rate of 10 μL/min with a 300 s dissociation phase. The surface was regenerated between each test concentration by the injection of a denaturing regeneration buffer (1 M NaCl, 50 mM NaOH). Non-specific binding to a biotinylated mNotch1 peptide-bound streptavidin surface was subtracted from each curve (BIA-evaluation Version 3.0 software, Cytiva). Maximal response units for each injection were plotted using GraphPad Prism 5.0.

[5] = tested on: HA-epitope tagged RGS12 full-length protein; experiment: Co-immunoprecipitation of RGS12 and SAPAP3 in HEK293T cells; format: binding
Protocol: Monolayer cultures of the immortalized human embryonic kidney cell line HEK293T (ATCC CRL-3216) were transfected at 75–90% confluence using FuGENE6 transfection reagent (Promega; Madison, WI, USA), according to the manufacturer’s instructions, with 0.5 μg of pcDNA3.1-Flag-SAPAP3 expression plasmid DNA and/or 0.5 μg of pcDNA3.1-HA-RGS12 expression plasmid DNA [103]. Forty-eight hours later, the transfected cells were lysed with ice-cold Triton-X lysis buffer (20 mM Tris-HCl pH 7.5, 150 mM NaCl, 1 mM EDTA, 1 mM EGTA, and 1% Triton X-100, supplemented with protease inhibitors). The lysates were clarified by centrifugation (16,000× g) and then incubated overnight at 4 °C with […] of HA- or Flag-epitope tag-specific antibody followed by precipitation with protein-A/G beads (Santa Cruz Biotechnology; Dallas, TX, USA). The beads were washed 3 times with ice-cold lysis buffer and the proteins were eluted in Laemmli buffer. The samples were resolved on 4–12% precast SDS-polyacrylamide gels (Novex/Invitrogen; ThermoFisher Scientific, Waltham, MA, USA), transferred to nitrocellulose, and immunoblotted with horseradish peroxidase (HRP)-conjugated primary antibodies to HA- or Flag-epitope tags and visualized by ECL chemiluminescence (GE Healthcare; Chicago, IL, USA).

[6] = target: T2, Wildtype human RGS12 PDZ domain GST-fusion protein (human, UniProt O14924 18-101); experiment: SPR; Alto 8 × 2 digital microfluidics SPR (Nicoya); biotinylated peptides immobilised on streptavidin-coated gold nanosensors; GST-RGS12 PDZ fusion protein as analyte, single-cycle kinetics, 111 nM-9 μM; PBS pH 7.3 with 0.1% Tween 20, BSA, 3% glycerol; mNotch1 or rβ2AR reference sensor subtracted; 1:1 Langmuir model with mass transport limitation; apparent rates, estimated KD; conditions: both partners purified
T2 construct: human RGS12 PDZ domain, aa 18-101 of UniProt O14924; also called GST-RGS12 PDZ domain fusion protein; wildtype PDZ protein; not shown: GST, N-terminal, kept
T2 sequence (looked up): T1 sequence (O14924 18-101 R59Q) with Q42R

[7] = target: T3, R59Q-variant human RGS12 PDZ domain GST-fusion protein (human, UniProt O14924 18-101, R59Q); experiment: SPR
T3 sequence: T1 sequence (O14924 18-101 R59Q)

[8] = target: T4, Wildtype human RGS12 PDZ domain GST-fusion protein (human, UniProt O14924 18-101); experiment: SPR
T4 chain: T1 sequence (O14924 18-101 R59Q) with Q42R

[9] = target: T3, R59Q-variant human RGS12 PDZ domain …; experiment: SPR; remark: listed apart in the source
[10] = target: T4, Wildtype human RGS12 PDZ domain …; experiment: SPR

## VGSSSANTSTTL-OH [C-terminal tail of rat CXCR2, 12-mer]
[1]
  SPR binding to rat RGS12 PDZ domain (in words): direct and selective binding

## biotin-Ahx-PSQITHIPEAFK-carboxylic acid [mouse Notch1]
[2]
  binding of negative control to RGS12 PDZ domain (in words): no demonstrable affinity

## RTLRLKQPSTPTRTAV-OH [C-terminal tail of rat MEK2, 16-mer]
[1]
  SPR binding to rat RGS12 PDZ domain (in words): direct and selective binding

## biotin-Ahx-QGRNCNTNDSPL-carboxylic acid [rat beta2-adrenergic receptor]
[2]
  binding of negative control to RGS12 PDZ domain (in words): no demonstrable affinity

## biotin-Ahx-RTLRLKQPSTPTRTAV-carboxylic acid [TRTAV-COOH of MEK2]
[3]
  KD of R59Q variant relative to wildtype (fold less than the wildtype): at least 2 fold
  maximal binding signal (Rmax), R59Q in comparison to wildtype: less maximal binding signal (Rmax)

## biotin-NH-SATESADSIEIYIPEAQSRL-amide
[4]
  SPR binding of recombinant RGS12 PDZ domain (in words): no appreciable binding

## biotin-NH-SATESADSIEIYIPEAQTRL-carboxylic acid
[4]
  SPR binding of recombinant RGS12 PDZ domain (in words): bound specifically

B1: Flag-epitope tagged SAPAP3: Flag-epitope tagged SAPAP3 full-length protein expressed in HEK293T cells (protein, UniProt O95886 1-979, looked up)
chain: MRGYHGDRGSHPRPARFADQQHMDVGPAARAPYLLGSREAFSTEPRFCAPRAGLGHISPEGPLSLSEGPSVGPEGGPAGAGVGGGSSTFPRMYPGQGPFDTCEDCVGHPQGKGAPRLPPTLLDQFEKQLPVQQDGFHTLPYQRGPAGAGPGPAPGTGTAPEPRSESPSRIRHLVHSVQKLFAKSHSLEAPGKRDYNGPKAEGRGGSGGDSYPGPGSGGPHTSHHHHHHHHHHHHQSRHGKRSKSKDRKGDGRHQAKSTGWWSSDDNLDSDSGFLAGGRPPGEPGGPFCLEGPDGSYRDLSFKGRSGGSEGRCLACTGMSMSLDGQSVKRSAWHTMMVSQGRDGYPGAGPGKGLLGPETKAKARTYHYLQVPQDDWGGYPTGGKDGEIPCRRMRSGSYIKAMGDEESGDSDGSPKTSPKAVARRFTTRRSSSVDQARINCCVPPRIHPRSSIPGYSRSLTTGQLSDELNQQLEAVCGSVFGELESQAVDALDLPGCFRMRSHSYLRAIQAGCSQDDDCLPLLATPAAVSGRPGSSFNFRKAPPPIPPGSQAPPRISITAQSSTDSAHESFTAAEGPARRCSSADGLDGPAMGARTLELAPVPPRASPKPPTLIIKTIPGREELRSLARQRKWRPSIGVQVETISDSDTENRSRREFHSIGVQVEEDKRRARFKRSNSVTAGVQADLELEGLAGLATVATEDKALQFGRSFQRHASEPQPGPRAPTYSVFRTVHTQGQWAYREGYPLPYEPPATDGSPGPAPAPTPGPGAGRRDSWIERGSRSLPDSGRASPCPRDGEWFIKMLRAEVEKLEHWCQQMEREAEDYELPEEILEKIRSAVGSTQLLLSQKVQQFFRLCQQSMDPTAFPVPTFQDLAGFWDLLQLSIEDVTLKFLELQQLKANSWKLLEPKEEKKVPPPIPKKPLRGRGVPVKERSLDSVDRQRQEARKRLLAAKRAASFRHSSATESADSIEIYIPEAQTRL
modifications: full-length Flag epitope tag
[5]; IP with anti-Flag antibody, Triton-X lysis buffer pH 7.5
  co-immunoprecipitation: co-immuno-precipitate
[5]; IP with anti-HA antibody
  reciprocal co-immunoprecipitation: reciprocal co-immunoprecipitation

B2: CXCR2 C-terminal peptide, biotin-Ahx-VGSSSGHTSTTL-carboxylic acid (peptide)
peptide: {Biotin-Ahx}-VGSSSGHTSTTL-OH
SMILES: CC(C)C[C@H](NC(=O)[C@@H](NC(=O)[C@@H](NC(=O)[C@H](CO)NC(=O)[C@@H](NC(=O)[C@H](Cc1c[nH]cn1)NC(=O)CNC(=O)[C@H](CO)NC(=O)[C@H](CO)NC(=O)[C@H](CO)NC(=O)CNC(=O)[C@@H](NC(=O)CCCCCNC(=O)CCCC[C@@H]1SC[C@@H]2NC(=O)N[C@@H]21)C(C)C)[C@@H](C)O)[C@@H](C)O)[C@@H](C)O)C(=O)O
notes: C-terminus of CXCR2; also called CXCR2 C-tail peptide TSTTL-COOH; CXCR2 TSTTL-COOH biosensor; source: synthetic peptide (GenScript)
[6]
  binding result: binds
[7]
  koff: 0.00193 s⁻¹
[8]
  koff: 0.000542 s⁻¹
[9]
  Kd: 1280 nM
[10]
  Kd: 450 nM

B3: SAPAP3 C-terminal peptide, biotin-Ahx-IYIPEAQTRL-carboxylic acid (peptide)
peptide: {Biotin-Ahx}-IYIPEAQTRL-OH
SMILES: CC[C@H](C)[C@H](NC(=O)CCCCCNC(=O)CCCC[C@@H]1SC[C@@H]2NC(=O)N[C@@H]21)C(=O)N[C@@H](Cc1ccc(O)cc1)C(=O)N[C@H](C(=O)N1CCC[C@H]1C(=O)N[C@@H](CCC(=O)O)C(=O)N[C@@H](C)C(=O)N[C@@H](CCC(N)=O)C(=O)N[C@H](C(=O)N[C@@H](CCCNC(=N)N)C(=O)N[C@@H](CC(C)C)C(=O)O)[C@@H](C)O)[C@@H](C)CC
notes: C-terminus of SAPAP3; the last ten residues of the human 20-mer aa 960-979; also called SAPAP3 C-tail peptide AQTRL-COOH; source: synthetic peptide (GenScript)
[6]
  binding result: binds
[7]
  koff: 0.00923 s⁻¹
[8]
  koff: 0.000383 s⁻¹
[9]
  Kd: 600 nM
[10]
  Kd: 260 nM

B4: MEK2 C-terminal peptide, biotin-Ahx-RTLRLKQPSTPTRTAV-carboxylic acid (peptide)
peptide: {Biotin-Ahx}-RTLRLKQPSTPTRTAV-OH
SMILES: CC(C)C[C@H](NC(=O)[C@H](CCCNC(=N)N)NC(=O)[C@H](CC(C)C)NC(=O)[C@@H](NC(=O)[C@H](CCCNC(=N)N)NC(=O)CCCCCNC(=O)CCCC[C@@H]1SC[C@@H]2NC(=O)N[C@@H]21)[C@@H](C)O)C(=O)N[C@@H](CCCCN)C(=O)N[C@@H](CCC(N)=O)C(=O)N1CCC[C@H]1C(=O)N[C@@H](CO)C(=O)N[C@H](C(=O)N1CCC[C@H]1C(=O)N[C@H](C(=O)N[C@@H](CCCNC(=N)N)C(=O)N[C@H](C(=O)N[C@@H](C)C(=O)N[C@H](C(=O)O)C(C)C)[C@@H](C)O)[C@@H](C)O)[C@@H](C)O
notes: C-terminus of MEK2; also called MEK2 C-tail; TRTAV-COOH of MEK2; source: synthetic peptide (GenScript)
[6]
  binding result: binds
